Assay [1] deals with T1, Human IFNβ (mature human interferon beta) (human, UniProt P01574 22-187).
T1 construct: Recombinant human IFNβ (Peprotech for SPR); In some functional assays it is endogenous IFNβ secreted by primary human cells; also called hIFN-β; recombinant human IFNβ
The assay is described as follows: Octet (BLI) response rank; method not described. (In BLI a coated tip is dipped into the sample, and binding shifts an interference pattern.)

Assay [2] has as its target T1, Human IFNβ (mature human interferon …). The assay is described as follows: cell-based or functional assay.
For assay [3] the target is unchanged. Description: SPR (affinity maturation); before the light chain mutations (parent antibody).
For assay [4] the target is unchanged. The assay is described as follows: SPR, Biacore T200; antibody amine-coupled on CM5 chip, human IFNβ as analyte, 1:1 model.

Experimental findings from patent publication US20170313769A1 (Pfizer, published 2017) are described below.

By Kd is commonly meant the equilibrium constant for the complex coming apart.

T1 sequence (P01574 22-187): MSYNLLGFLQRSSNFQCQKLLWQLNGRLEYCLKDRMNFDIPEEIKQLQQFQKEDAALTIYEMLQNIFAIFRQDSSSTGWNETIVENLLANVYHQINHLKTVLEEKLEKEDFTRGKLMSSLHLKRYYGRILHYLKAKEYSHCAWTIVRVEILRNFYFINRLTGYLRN

B1: CTI-AF15 (antibody, human IgG1, kappa, V domains shown)
VH: QVQLVQSGAEVKKPGSSVKVSCKASGYTFSRYWMHWVRQAPGQGLEWMGHIDPSDSYTYYNQKFKGRVTITADESTSTAYMELSSLRSEDTAVYYCARWDYGNLLFEYWGQGTLVTVSS
VL: DIQMTQSPSSLSASVGDRVTITCRTSQDISSYLNWYQQKPGKAFKLLIYSTSRLHSGVPSRFSGSGSGTDFTLTISSLQPEDFATYYCQQGIILPITFGGGTKVEIKR
As to B1, the “Response rank (Octet)” value in assay [1] came out at 3 rank. Moreover, the “IC50 (pM) pSTAT1 Inhibition” value in assay [2] worked out at 80 pM.

B2: CTI-AF5 (antibody, human IgG1, kappa, V domains shown)
VH: QVQLVQSGAEVKKPGSSVKVSCKASGYTFSRYWMHWVRQAPGQGLEWMGHIDPSDSYTYYNQKFKGRVTITADESTSTAYMELSSLRSEDTAVYYCARWDYGNLLFEYWGQGTLVTVSS
VL: DIQMTQSPSSLSASVGDRVTITCRTSQDISNYLNWYQQKPGKAFKLLIYTTSRLRSGVPSRFSGSGSGTDFTLTISSLQPEDFATYYCQQGIVLPITFGGGTKVEIKR
For the molecule B2, in assay [2], the “IC50 (pM) pSTAT1 Inhibition” value was 10 pM.

B3: humanized parent of CTI-AF1 before affinity maturation (antibody, V domains shown)
VH: QVQLVQSGAEVKKPGSSVKVSCKASGYTFSRYWMHWVRQAPGQGLEWMGHIDPSDSYTYYNQKFKGRVTITADESTSTAYMELSSLRSEDTAVYYCARWDYGNLLFEYWGQGTLVTVSS
VL: DIQMTQSPSSLSASVGDRVTITCRTSQDISNYLNWYQQKPGKAFKLLIYSTSRLHSGVPSRFSGSGSGTDFTLTISSLQPEDFATYYCQQGHTLPLTFGGGTKVEIK
notes: no mutations were made in VH
Turning to B3, in assay [3], the Kd turned out to be 25 nM.

B4: CTI-AF20 (antibody, human IgG1, kappa, V domains shown)
VH: QVQLVQSGAEVKKPGSSVKVSCKASGYTFSRYWMHWVRQAPGQGLEWMGHIDPSDSYTYYNQKFKGRVTITADESTSTAYMELSSLRSEDTAVYYCARWDYGNLLFEYWGQGTLVTVSS
VL: DIQMTQSPSSLSASVGDRVTITCRTSQDISSYLNWYQQKPGKAFKLLIYTTSRLRSGVPSRFSGSGSGTDFTLTISSLQPEDFATYYCQQGIVLPITFGGGTKVEIKR
In the case of B4, in assay [4], binding was characterised by a dissociation constant (Kd) of 0.335 nM. In assay [1], the “Response rank (Octet)” value is 8 rank. In assay [2], the “IC50 (pM) pSTAT1 Inhibition” value was 20 pM.

B5: CTI-AF23 (antibody, human IgG1, kappa, V domains shown)
VH: QVQLVQSGAEVKKPGSSVKVSCKASGYTFSRYWMHWVRQAPGQGLEWMGHIDPSDSYTYYNQKFKGRVTITADESTSTAYMELSSLRSEDTAVYYCARWDYGNLLFEYWGQGTLVTVSS
VL: DIQMTQSPSSLSASVGDRVTITCRTSQDISSYLNWYQQKPGKAFKLLIYTTSRLRSGVPSRFSGSGSGTDFTLTISSLQPEDFATYYCQQSTILPLTFGGGTKVEIKR
Regarding B5, the “Response rank (Octet)” value in assay [1] was 9 rank.

B6: CTI-AF10 (antibody, human IgG1, kappa, V domains shown)
VH: QVQLVQSGAEVKKPGSSVKVSCKASGYTFSRYWMHWVRQAPGQGLEWMGHIDPSDSYTYYNQKFKGRVTITADESTSTAYMELSSLRSEDTAVYYCARWDYGNLLFEYWGQGTLVTVSS
VL: DIQMTQSPSSLSASVGDRVTITCRTSQDISSYLNWYQQKPGKAFKLLIYSTSRLHSGVPSRFSGSGSGTDFTLTISSLQPEDFATYYCQQSTILPLTFGGGTKVEIKR
For B6, in assay [1], the “Response rank (Octet)” value was determined as 5 rank.

B7: CTI-AF4 (antibody, human IgG1, kappa, V domains shown)
VH: QVQLVQSGAEVKKPGSSVKVSCKASGYTFSRYWMHWVRQAPGQGLEWMGHIDPSDSYTYYNQKFKGRVTITADESTSTAYMELSSLRSEDTAVYYCARWDYGNLLFEYWGQGTLVTVSS
VL: DIQMTQSPSSLSASVGDRVTITCRTSQDISSYLNWYQQKPGKAFKLLIYSTSRLHSGVPSRFSGSGSGTDFTLTISSLQPEDFATYYCQQGIVLPITFGGGTKVEIKR
Regarding B7, the “Response rank (Octet)” value in assay [1] is 4 rank.

B8: CTI-AF21 (antibody, human IgG1, kappa, V domains shown)
VH: QVQLVQSGAEVKKPGSSVKVSCKASGYTFSRYWMHWVRQAPGQGLEWMGHIDPSDSYTYYNQKFKGRVTITADESTSTAYMELSSLRSEDTAVYYCARWDYGNLLFEYWGQGTLVTVSS
VL: DIQMTQSPSSLSASVGDRVTITCRTSQDIDNFLQWYQQKPGKAFKLLIFSTSKLHSGVPSRFSGSGSGTDFTLTISSLQPEDFATYYCQQGIVLPITFGGGTKVEIKR
In the case of B8, in assay [1], the “Response rank (Octet)” value amounted to 11 rank.

B9: CTI-AF8 (antibody, human IgG1, kappa, V domains shown)
VH: QVQLVQSGAEVKKPGSSVKVSCKASGYTFSRYWMHWVRQAPGQGLEWMGHIDPSDSYTYYNQKFKGRVTITADESTSTAYMELSSLRSEDTAVYYCARWDYGNLLFEYWGQGTLVTVSS
VL: DIQMTQSPSSLSASVGDRVTITCRTSQDIGNYLNWYQQKPGKAFKLLIYSTSRLHSGVPSRFSGSGSGTDFTLTISSLQPEDFATYYCQQSTILPLTFGGGTKVEIKR
For B9, in assay [1], the “Response rank (Octet)” value came out at 6 rank. The “IC50 (pM) ISRE Neutralization” value in assay [2] stood at 460 pM.

B10: CTI-AF9 (antibody, human IgG1, kappa, V domains shown)
VH: QVQLVQSGAEVKKPGSSVKVSCKASGYTFSRYWMHWVRQAPGQGLEWMGHIDPSDSYTYYNQKFKGRVTITADESTSTAYMELSSLRSEDTAVYYCARWDYGNLLFEYWGQGTLVTVSS
VL: DIQMTQSPSSLSASVGDRVTITCRTSQDISNYLNWYQQKPGKAFKLLIFSTSRLHSGVPSRFSGSGSGTDFTLTISSLQPEDFATYYCQQSTILPLTFGGGTKVEIKR
Turning to B10, the “Response rank (Octet)” value in assay [1] was 12 rank. In assay [2], the “IC50 (pM) ISRE Neutralization” value worked out at 75 pM.

B11: CTI-AF14 (antibody, human IgG1, kappa, V domains shown)
VH: QVQLVQSGAEVKKPGSSVKVSCKASGYTFSRYWMHWVRQAPGQGLEWMGHIDPSDSYTYYNQKFKGRVTITADESTSTAYMELSSLRSEDTAVYYCARWDYGNLLFEYWGQGTLVTVSS
VL: DIQMTQSPSSLSASVGDRVTITCRTSQDISNYLNWYQQKPGKAFKLLIFSTSRLHSGVPSRFSGSGSGTDFTLTISSLQPEDFATYYCQQGIILPITFGGGTKVEIKR
With B11, in assay [1], the “Response rank (Octet)” value worked out at 7 rank. Also, in assay [2], the “IC50 (pM) pSTAT1 Inhibition” value came out at 30 pM.

B12: CTI-AF27 (antibody, human IgG1, kappa, V domains shown)
VH: QVQLVQSGAEVKKPGSSVKVSCKASGYTFSRYWMHWVRQAPGQGLEWMGHIDPSDSYTYYNQKFKGRVTITADESTSTAYMELSSLRSEDTAVYYCARWDYGNLLFEYWGQGTLVTVSS
VL: DIQMTQSPSSLSASVGDRVTITCRTSQDIDNFLQWYQQKPGKAFKLLIFSTSKLHSGVPSRFSGSGSGTDFTLTISSLQPEDFATYYCQQGIILPITFGGGTKVEIKR
B12: the “Response rank (Octet)” value in assay [1] amounted to 10 rank. The “IC50 (pM) pSTAT1 Inhibition” value in assay [2] stood at 70 pM.

B13: CTI-AF16 (antibody, human IgG1, kappa, V domains shown)
VH: QVQLVQSGAEVKKPGSSVKVSCKASGYTFSRYWMHWVRQAPGQGLEWMGHIDPSDSYTYYNQKFKGRVTITADESTSTAYMELSSLRSEDTAVYYCARWDYGNLLFEYWGQGTLVTVSS
VL: DIQMTQSPSSLSASVGDRVTITCRTSQDISNYLNWYQQKPGKAFKLLIYTTSRLRSGVPSRFSGSGSGTDFTLTISSLQPEDFATYYCQQGIILPITFGGGTKVEIKR
Regarding B13, the “Response rank (Octet)” value in assay [1] is 2 rank. Besides, the “IC50 (pM) ISRE Neutralization” value in assay [2] turned out to be 14 pM.
